Experimental data reported in publication PMC5125011, “Soluble Siglec-5 associates to PSGL-1 and displays anti-inflammatory activity” (Scientific Reports, 2016).
Each block holds one binder with its values, some of them ahead of it.

Tests used:
[1] = target: T1, human soluble recombinant PSGL1 fused to human Fc (human, UniProt Q14242 18-320); experiment: ELISA; sPSGL1/Fc (0.25 μg/well) adsorbed to microtiter wells; Tris-buffered saline with 2.5 mM CaCl2, 0.1% Tween-20, 3% BSA; bound sSiglec-5 probed with biotin-labeled polyclonal anti-Siglec-5 antibodies, bound P-selectin with a monoclonal anti-P-selectin antibody; controls with EDTA (5 mM) or polyclonal anti-Siglec-5 antibodies (6 μM) inhibited binding; conditions: both partners purified
T1 construct: P-selectin glycoprotein ligand-1 (PSGL1), human, soluble ectodomain; Sialylated glycoprotein; also called sPSGL1/Fc; soluble PSGL1/Fc; source: bought: R&D Systems (cat# 3345-PS)
T1 sequence (looked up): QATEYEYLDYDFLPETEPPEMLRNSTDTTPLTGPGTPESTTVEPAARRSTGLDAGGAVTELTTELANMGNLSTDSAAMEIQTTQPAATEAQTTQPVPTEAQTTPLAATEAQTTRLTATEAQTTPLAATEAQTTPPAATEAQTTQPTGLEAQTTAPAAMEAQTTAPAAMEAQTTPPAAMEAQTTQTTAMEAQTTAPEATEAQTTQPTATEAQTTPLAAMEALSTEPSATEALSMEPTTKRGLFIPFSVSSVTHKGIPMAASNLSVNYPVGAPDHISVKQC

[2] = target: the molecule itself; experiment: SDS-PAGE under non-reduced and reduced conditions; purified sSiglec-5/C4BP, Coomassie-staining; about 525 kDa non-reduced, 75 kDa reduced; heptamer to single chains

EC50 [1]: 8 ± 1 nM
B1: heptameric Siglec-5/C4BP fusion protein (other, UniProt O15389 17-434, looked up)
chain: EKPVYELQVQKSVTVQEGLCVLVPCSFSYPWRSWYSSPPLYVYWFRDGEIPYYAEVVATNNPDRRVKPETQGRFRLLGDVQKKNCSLSIGDARMEDTGSYFFRVERGRDVKYSYQQNKLNLEVTALIEKPDIHFLEPLESGRPTRLSCSLPGSCEAGPPLTFSWTGNALSPLDPETTRSSELTLTPRPEDHGTNLTCQMKRQGAQVTTERTVQLNVSYAPQTITIFRNGIALEILQNTSYLPVLEGQALRLLCDAPSNPPAHLSWFQGSPALNATPISNTGILELRRVRSAEEGGFTCRAQHPLGFLQIFLNLSVYSLPQLLGPSCSWEAEGLHCRCSFRARPAPSLCWRLEEKPLEGNSSQGSFKVNSSSAGPWANSSLILHGGLSSDLKVSCKAWNIYGSQSGSVLLLQGRSNLGTETPEGCEQVLTGKRLMQCLPNPEDVKMALEVYKLSLEIEQLELQRDSARQSTLDKEL
notes: Siglec-5 ectodomain, residues 17-434; also called sSiglec-5/C4BP; sSg-5/C4BP
stoichiometry N [2]: 7

EC50 [1]: 49 ± 11 nM
B2: Recombinant soluble Siglec-5 fused to human Fc (Fc fusion, UniProt O15389 17-441, looked up)
chain: EKPVYELQVQKSVTVQEGLCVLVPCSFSYPWRSWYSSPPLYVYWFRDGEIPYYAEVVATNNPDRRVKPETQGRFRLLGDVQKKNCSLSIGDARMEDTGSYFFRVERGRDVKYSYQQNKLNLEVTALIEKPDIHFLEPLESGRPTRLSCSLPGSCEAGPPLTFSWTGNALSPLDPETTRSSELTLTPRPEDHGTNLTCQMKRQGAQVTTERTVQLNVSYAPQTITIFRNGIALEILQNTSYLPVLEGQALRLLCDAPSNPPAHLSWFQGSPALNATPISNTGILELRRVRSAEEGGFTCRAQHPLGFLQIFLNLSVYSLPQLLGPSCSWEAEGLHCRCSFRARPAPSLCWRLEEKPLEGNSSQGSFKVNSSSAGPWANSSLILHGGLSSDLKVSCKAWNIYGSQSGSVLLLQGRSNLGTGVVPAAL
notes: Siglec-5, soluble; also called sSiglec-5/Fc; sSg-5/Fc; source: bought: R&D Systems (cat# 1072-SL), produced in mouse myeloma cell-line NS0
